Data from article PMC5693923 (2017).

Target: TLR4 extracellular domain 24-631 (Homo sapiens, UniProt O00206)
Experiment: solid phase binding assay

Sequence of TLR4 extracellular domain 24-631 (O00206 24-631): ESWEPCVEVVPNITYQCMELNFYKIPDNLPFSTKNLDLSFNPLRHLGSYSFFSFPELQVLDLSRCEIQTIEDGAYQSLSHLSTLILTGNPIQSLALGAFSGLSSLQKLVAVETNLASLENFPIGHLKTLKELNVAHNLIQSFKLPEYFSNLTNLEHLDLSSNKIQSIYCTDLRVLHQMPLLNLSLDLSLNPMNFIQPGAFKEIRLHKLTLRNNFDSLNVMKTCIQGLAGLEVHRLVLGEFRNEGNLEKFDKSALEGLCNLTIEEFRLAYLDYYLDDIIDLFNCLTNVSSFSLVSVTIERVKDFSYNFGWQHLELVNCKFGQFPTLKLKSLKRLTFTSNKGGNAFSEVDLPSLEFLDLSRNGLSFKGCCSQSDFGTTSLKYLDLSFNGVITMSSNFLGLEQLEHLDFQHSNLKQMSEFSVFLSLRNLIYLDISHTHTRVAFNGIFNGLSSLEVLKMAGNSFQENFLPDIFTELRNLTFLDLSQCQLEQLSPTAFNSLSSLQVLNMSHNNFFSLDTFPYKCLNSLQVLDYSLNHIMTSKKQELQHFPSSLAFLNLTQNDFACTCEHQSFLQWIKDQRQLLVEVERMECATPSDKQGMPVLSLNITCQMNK

| Kd [nM] | Binder |
| --- | --- |
| ~55 | Tenascin-W FBG domain (FBG-W) 1060-1300 (protein) VGARFPHPSDCSQVQQNSNAASGLYTIYLHGDASRPLQVYCDMETDGGGWIVFQRRNTGQLDFFKRWRSYVEGFGDPMKEFWLGLDKLHNLTTGTPARYEVRVDLQTANESAYAIYDFFQVASSKERYKLTVGKYRGTAGDALTYHNGWKFTTFDRDNDIALSNCALTHHGGWWYKNCHLANPNGRYGETKHSEGVNWEPWKGHEFSIPYVELKIRPHGYSREPVLGRKKRTLRGRLRTF |
| ~55 | Tenascin-R FBG domain (FBG-R) 1128-1359 (protein) GGRVFPHPQDCAQHLMNGDTLSGVYPIFLNGELSQKLQVYCDMTTDGGGWIVFQRRQNGQTDFFRKWADYRVGFGNVEDEFWLGLDNIHRITSQGRYELRVDMRDGQEAAFASYDRFSVEDSRNLYKLRIGSYNGTAGDSLSYHQGRPFSTEDRDNDVAVTNCAMSYKGAWWYKNCHRTNLNGKYGESRHSQGINWYHWKGHEFSIPFVEMKMRPYNHRLMAGRKRQSLQF |
